Source: paper PMC6328559

How the values were obtained:
[1] = target: SLy1 SAM domain construct SAMwt (SLy1 residues P254-E321 with an N-terminal glycine from the tag) (mouse) (UniProt Q8K352); assay: MST; Alexa Fluor 488 labelled protein kept constant (SAMwt 70 nM, SAMlg 60 nM), total protein varied (SAMwt 1.1-824 µM, SAMlg 0.2-250 µM); standard buffer pH 6.4, room temperature; fit to a monomer-dimer equilibrium; dimer to monomers
[2] = target: SLy1 SAM domain construct SAMwt (SLy1 residues P254-E321 with an N-terminal glycine from the tag) (mouse) (UniProt Q8K352); assay: AUC; sedimentation equilibrium, 30 °C, standard buffer (50 mM potassium phosphate, 20 mM NaCl, 0.1 mM EDTA, pH 6.4) without NaN3; three loading concentrations (SAMwt 60, 120, 300 µM; SAMlg 31, 64, 98 µM) at several speeds; global fit to a monomer-dimer equilibrium; dimer to monomers
TEL SAM (Homo sapiens) = TEL SAM (Homo sapiens) (UniProt P41212); conditions: cited from earlier work
[3] = target: Yan SAM (Drosophila melanogaster) (UniProt Q01842); conditions: cited from earlier work

Sequence of TEL SAM (P41212 40-124): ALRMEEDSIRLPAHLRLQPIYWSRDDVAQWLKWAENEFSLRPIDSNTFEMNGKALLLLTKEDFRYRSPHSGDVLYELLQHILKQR
Sequence of Yan SAM (Q01842 33-117): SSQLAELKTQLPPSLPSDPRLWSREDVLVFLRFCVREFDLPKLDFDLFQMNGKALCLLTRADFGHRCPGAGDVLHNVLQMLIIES

**Q.** With “SLy1 SAM domain construct SAMwt (SLy1 residues P254-E321 with an N-terminal glycine from the tag) (from UniProt Q8K352 254-321) (domain or fragment)” as the substance, how does the Kd [1] read?
**A.** The Kd was 153 µM.

**Q.** And the Ka [2]?
**A.** Its Ka is 8500 M⁻¹.

**Q.** What about the Kd [2] of the same substance?
**A.** Its Kd is 117 µM.

**Q.** What about the stoichiometry N [2] of the same substance?
**A.** Its stoichiometry N is 2.

**Q.** With TEL SAM (from UniProt P41212) as the substance, how does the Kd (TEL SAM (Homo sapiens)) read?
**A.** Its Kd is 0.0017 µM.

**Q.** With Yan SAM (from UniProt Q01842) as the substance, how does the Kd [3] read?
**A.** Its Kd is 11 µM.
